Assay results: IntAct's records for PubMed 16365431

B1: Inhibitor of nuclear factor kappa-B kinase subunit beta (Homo sapiens), O14920 (parent)
chain: MSWSPSLTTQTCGAWEMKERLGTGGFGNVIRWHNQETGEQIAIKQCRQELSPRNRERWCLEIQIMRRLTHPNVVAARDVPEGMQNLAPNDLPLLAMEYCQGGDLRKYLNQFENCCGLREGAILTLLSDIASALRYLHENRIIHRDLKPENIVLQQGEQRLIHKIIDLGYAKELDQGSLCTSFVGTLQYLAPELLEQQKYTVTVDYWSFGTLAFECITGFRPFLPNWQPVQWHSKVRQKSEVDIVVSEDLNGTVKFSSSLPYPNNLNSVLAERLEKWLQLMLMWHPRQRGTDPTYGPNGCFKALDDILNLKLVHILNMVTGTIHTYPVTEDESLQSLKARIQQDTGIPEEDQELLQEAGLALIPDKPATQCISDGKLNEGHTLDMDLVFLFDNSKITYETQISPRPQPESVSCILQEPKRNLAFFQLRKVWGQVWHSIQTLKEDCNRLQQGQRAAMMNLLRNNSCLSKMKNSMASMSQQLKAKLDFFKTSIQIDLEKYSEQTEFGITSDKLLLAWREMEQAVELCGRENEVKLLVERMMALQTDIVDLQRSPMGRKQGGTLDDLEEQARELYRRLREKPRDQRTEGDSQEMVRLLLQAIQSFEKKVRVIYTQLSKTVVCKQKALELLPKVEEVVSLMNEDEKTVVRLQEKRQKELWNLLKIACSKVRGPVSGSPDSMNASRLSQPGQLMSQPSTASNSLPEPAKKSEELVAEAHNLCTLLENAIQDTVREQDQSFTALDWSWLQTEEEEHSCLEQAS

Variants of: B1
Conditions: with ikba_human NFKBIA

effect of a mutation on the interaction	Variant
disrupting interaction	K44M
